Laboratory results from US20130230533A1 (Regeneron, published 2013).

T1: Monomeric human CD48-mmH (human)
T1 chain: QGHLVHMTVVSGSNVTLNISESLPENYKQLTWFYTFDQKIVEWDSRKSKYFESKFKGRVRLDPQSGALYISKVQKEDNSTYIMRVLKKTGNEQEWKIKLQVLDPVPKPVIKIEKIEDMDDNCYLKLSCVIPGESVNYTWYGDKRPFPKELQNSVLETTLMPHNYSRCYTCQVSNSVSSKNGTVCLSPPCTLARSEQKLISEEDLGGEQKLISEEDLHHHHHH

T2: Dimeric human CD48-mFc (human)
T2 construct: the whole entry is the construct; also called hCD48-mFc
T2 chain: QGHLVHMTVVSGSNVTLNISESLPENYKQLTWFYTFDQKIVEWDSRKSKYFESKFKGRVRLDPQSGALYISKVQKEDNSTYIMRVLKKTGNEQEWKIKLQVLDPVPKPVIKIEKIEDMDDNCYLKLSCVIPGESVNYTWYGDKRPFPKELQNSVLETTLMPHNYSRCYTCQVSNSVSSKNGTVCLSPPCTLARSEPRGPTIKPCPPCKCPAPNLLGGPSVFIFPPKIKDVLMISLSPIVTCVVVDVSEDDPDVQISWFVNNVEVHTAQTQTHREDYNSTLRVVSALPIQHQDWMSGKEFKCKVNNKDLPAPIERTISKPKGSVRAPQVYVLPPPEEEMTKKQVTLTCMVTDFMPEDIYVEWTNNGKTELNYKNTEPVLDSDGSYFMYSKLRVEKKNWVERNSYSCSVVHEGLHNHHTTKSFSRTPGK

T3: Monomeric monkey CD48-mmH (monkey)
T3 construct: Soluble monkey CD48 with a myc-myc-hexa-histidine C-terminal tag; the whole entry is the construct; also called mfCD48-mmH
T3 chain: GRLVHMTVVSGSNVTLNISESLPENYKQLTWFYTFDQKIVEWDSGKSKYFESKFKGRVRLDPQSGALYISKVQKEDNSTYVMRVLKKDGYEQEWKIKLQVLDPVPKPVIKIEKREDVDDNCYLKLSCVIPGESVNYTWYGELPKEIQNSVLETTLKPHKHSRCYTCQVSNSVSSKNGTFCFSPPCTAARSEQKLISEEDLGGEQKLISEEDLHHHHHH

T4: Dimeric monkey CD48-mFc (monkey)
T4 construct: Soluble monkey CD48 with a C-terminal Fc fusion [mFc]; the whole entry is the construct
T4 chain: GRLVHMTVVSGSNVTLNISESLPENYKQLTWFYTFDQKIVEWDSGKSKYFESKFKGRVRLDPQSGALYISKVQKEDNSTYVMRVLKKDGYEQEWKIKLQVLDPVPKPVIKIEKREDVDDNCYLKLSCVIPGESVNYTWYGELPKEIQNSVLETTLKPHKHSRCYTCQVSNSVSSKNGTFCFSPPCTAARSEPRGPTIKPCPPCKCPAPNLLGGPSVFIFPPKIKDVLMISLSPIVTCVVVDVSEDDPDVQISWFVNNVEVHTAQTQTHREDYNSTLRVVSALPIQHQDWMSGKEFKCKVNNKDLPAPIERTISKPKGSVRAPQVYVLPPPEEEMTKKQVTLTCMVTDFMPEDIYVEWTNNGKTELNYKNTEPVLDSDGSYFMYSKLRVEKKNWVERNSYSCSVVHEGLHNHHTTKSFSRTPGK


Assays:
Monomeric human CD48-mmH = target: T1, Monomeric human CD48-mmH; experiment: SPR (Biacore), antibody captured by anti-Fc, CD48 in solution, 37 C
Method: (§1) Measurements were conducted on a T100-2 BIACORE™ instrument (Biacore Life Sciences division of GE Healthcare, Piscataway, N.J.). Antibodies (either with mouse Fc [designated “H2M” or “H3M”] or human IgG4 Fc [designated “H4H”]) were captured through an anti-Fc chip surface, and CD48 was flowed over the surface either in a monomeric (soluble CD48 expressed with a myc-myc-hexa-histidine C-terminal tag [mmH]) or dimeric (soluble CD48 expressed with a C-terminal Fc fusion [mFc]) format.
(§2) The soluble CD48 was applied to the flow cell in separate injections at different concentrations, and kinetic association (kₐ) and dissociation (kd) rate constants were determined by fits to the kinetic binding data using Biacore software. Binding dissociation equilibrium constants and dissociation half-times were calculated from the kinetic rate constants as: KD=kd/kₐ; t_{1/2}=(ln 2/kd) (units: ka=M⁻¹*s⁻¹; kd=s⁻¹; KD=M; T½=min) (Tables 3-6).

Dimeric human CD48-mFc = target: T2, Dimeric human CD48-mFc; experiment: as above
Method: as §1, §2

[1] = target: T3, Monomeric monkey CD48-mmH; experiment: as above
Method: as §1, §2

Dimeric monkey CD48-mFc [2] = target: T4, Dimeric monkey CD48-mFc; experiment: as above
Method: as §1, §2

[3] = target: T3, Monomeric monkey CD48-mmH; experiment: SPR (Biacore), antibody captured by anti-Fc, CD48 in solution, 25 C
Method: as §1, §2

Dimeric monkey CD48-mFc [4] = target: T4, Dimeric monkey CD48-mFc; experiment: as above
Method: as §1, §2

Binder	Kd (Monomeric human CD48-mmH) [nM]	T½ (Monomeric human CD48-mmH) [h]	koff (Monomeric human CD48-mmH) [s⁻¹]	kon (Monomeric human CD48-mmH) [M⁻¹ s⁻¹]	Kd (Dimeric human CD48-mFc) [nM]	T½ (Dimeric human CD48-mFc) [h]	koff (Dimeric human CD48-mFc) [s⁻¹]	kon (Dimeric human CD48-mFc) [M⁻¹ s⁻¹]	Kd [1] [nM]	T½ [1] [h]	koff [1] [s⁻¹]	kon [1] [M⁻¹ s⁻¹]	Kd (Dimeric monkey CD48-mFc [2]) [nM]	T½ (Dimeric monkey CD48-mFc [2]) [h]	koff (Dimeric monkey CD48-mFc [2]) [s⁻¹]	kon (Dimeric monkey CD48-mFc [2]) [M⁻¹ s⁻¹]	Kd [3] [nM]	T½ [3] [h]	koff [3] [s⁻¹]	kon [3] [M⁻¹ s⁻¹]	further results
H4H1774P (antibody, human IgG4, V domains shown, Human IgG4 Fc (H4H)) VH: QVQLVESGGGVVQPGRSLRLSCAASGFTFSNYGMHWVRQAPGKGLEWVAVIWYDESSKYYTDSVKGRFTISRDNSQNTLYLQMTSLRAEDTAVYYCARDRWTYSHYFEYWGQGTLVTVSS VL: DIQMTQSPSSVSASVGDRVTITCRASQGISSWVAWYQQKPGKAPKLLIYAASSLQSGVPSRFSGSGSGTDFTLTISSLQPEDFATYYCQQANSFPRTFGQGTKVEIK	0.824	1.8	0.000107	130000	0.0439	12.1	1.6e-05	363000	1.36	0.717	0.000267	197000	0.107	3.57	5.4e-05	508000	0.289	2.52	7.63e-05	263000	Kd (Dimeric monkey CD48-mFc [4]): 0.0525 nM; T½ (Dimeric monkey CD48-mFc [4]): 9.3 h; koff (Dimeric monkey CD48-mFc [4]): 2.07e-05 s⁻¹; kon (Dimeric monkey CD48-mFc [4]): 395000 M⁻¹ s⁻¹
H4H1778P (antibody, human IgG4, V domains shown, Human IgG4 Fc (H4H)) VH: QVQLVESGGGVVQPGRSLRLSCAASGFTFSNYGMHWVRQAPGKGLEWVAVIWYDESSKYYTDSVKGRFTISRDNSQNTLYLQMTSLRAEDTAVYYCARDRWTYSHYFEYWGQGTLVTVSS VL: DIQMTQSPSSVSASVGDRVTITCRASQGISSWVAWYQQKPGKAPKLLIYAASSLQSGVPSRFSGSGSGTDFTLTISSLQPEDFATYYCQQANSFPRTFGQGTKVEIK	0.837	1.7	0.000113	135000	0.0746	5.45	3.53e-05	473000	1.34	0.767	0.000253	189000	0.0686	5.35	3.6e-05	525000	0.325	2.15	8.98e-05	276000	Kd (Dimeric monkey CD48-mFc [4]): 0.046 nM; T½ (Dimeric monkey CD48-mFc [4]): 10.9 h; koff (Dimeric monkey CD48-mFc [4]): 1.77e-05 s⁻¹; kon (Dimeric monkey CD48-mFc [4]): 384000 M⁻¹ s⁻¹
H4H1775P (antibody, human IgG4, V domains shown, Human IgG4 Fc (H4H)) VH: QVQLVESGGGVVQPGRSLRLSCAASGFTFSNYGMHWVRQAPGKGLEWVAVIWYDESGKHYADSVKGRFTISRDNSQNTLYLQMTSLRAEDTAVYYCARDRWTYSHYFEYWGQGTLVTVSS VL: DIQMTQSPSSVSASVGDRVTITCRASQDISSWVAWYQQKPGKAPKLLIYAASSLQSGVPSRFSGSGSGTDFTLTISSLQPEDFATYYCQQANSFPRTFGQGTKVEIK	0.536	2.03	9.48e-05	177000	0.0434	8.48	2.27e-05	522000	0.498	1.5	0.000129	260000	0.0593	4.85	3.97e-05	669000	0.14	4.73	4.07e-05	291000	Kd (Dimeric monkey CD48-mFc [4]): 0.0135 nM; T½ (Dimeric monkey CD48-mFc [4]): 29.2 h; koff (Dimeric monkey CD48-mFc [4]): 6.6e-06 s⁻¹; kon (Dimeric monkey CD48-mFc [4]): 488000 M⁻¹ s⁻¹

The next lines start with results.

Kd (Monomeric human CD48-mmH) [nM]	T½ (Monomeric human CD48-mmH) [h]	koff (Monomeric human CD48-mmH) [s⁻¹]	kon (Monomeric human CD48-mmH) [M⁻¹ s⁻¹]	Kd (Dimeric human CD48-mFc) [nM]	T½ (Dimeric human CD48-mFc) [h]	koff (Dimeric human CD48-mFc) [s⁻¹]	kon (Dimeric human CD48-mFc) [M⁻¹ s⁻¹]	Kd [1] [nM]	T½ [1] [h]	koff [1] [s⁻¹]	kon [1] [M⁻¹ s⁻¹]	Kd (Dimeric monkey CD48-mFc [2]) [nM]	T½ (Dimeric monkey CD48-mFc [2]) [h]	koff (Dimeric monkey CD48-mFc [2]) [s⁻¹]	kon (Dimeric monkey CD48-mFc [2]) [M⁻¹ s⁻¹]	Kd [3] [nM]	T½ [3] [h]	koff [3] [s⁻¹]	kon [3] [M⁻¹ s⁻¹]	Binder	further results
8.97	0.1	0.00179	199000	0.161	5.4	3.57e-05	221000	4.71	0.1	0.00206	437000	0.776	0.25	0.000768	990000	3.31	0.133	0.00138	416000	H4H1789Pa (antibody, V domains shown, Human IgG4 Fc (H4H)) VH: EVQLLESGGGLVHPGGSLRLSCAASGFTFGGYAMSWVRQAPGKGLEWVSLISGSGGSTYYADSVKGRFTIFRDNSKNTLYLQMISLRAEDSAVYYCAKYSNYDYFDPWGQGTLVTVSS VL: not shown	Kd (Dimeric monkey CD48-mFc [4]): 0.423 nM; T½ (Dimeric monkey CD48-mFc [4]): 0.7 h; koff (Dimeric monkey CD48-mFc [4]): 0.000276 s⁻¹; kon (Dimeric monkey CD48-mFc [4]): 651000 M⁻¹ s⁻¹
0.448	1.9	0.000101	226000	0.0603	3.93	4.89e-05	812000	0.875	0.633	0.000307	350000	0.0755	2.92	6.61e-05	875000	0.262	2.47	7.8e-05	298000	H4H1781P (antibody, human IgG4, V domains shown, Human IgG4 Fc (H4H)) VH: QVQLVESGGGVVQPGRSLRLSCAASGFTFSNYGMHWVRQAPGKGLEWVAVIWYDDSNKNYADSVKGRFTISRDNSKNTLYLQMNSLRVEDTAVYYCARDRWTYSHFFEYWGQGTLVTVSS VL: DIQMTQSPSSVSASVGDRVTITCRASQGISSWLAWYQQKPGKAPNLLIYAASSLQSGVPSRFGGSGSGTDFSLTISGLQPEDFATYYCQQANSFPRTFGQGTKVEIK	Kd (Dimeric monkey CD48-mFc [4]): 0.0356 nM; T½ (Dimeric monkey CD48-mFc [4]): 9.03 h; koff (Dimeric monkey CD48-mFc [4]): 2.13e-05 s⁻¹; kon (Dimeric monkey CD48-mFc [4]): 599000 M⁻¹ s⁻¹
0.495	1.88	0.000102	207000	0.0594	4.2	4.59e-05	772000	1.04	0.667	0.000289	277000	0.0829	3.22	5.98e-05	721000	0.375	1.7	0.000113	301000	H4H1779P (antibody, human IgG4, V domains shown, Human IgG4 Fc (H4H)) VH: QVQLVESGGGVVQPGRSLRLSCAASGFTFSNYGMHWVRQAPGKGLEWVAVIWYDESSKHYADSVKGRFTISRDNSQNTLYLQMTSLRAEDTAVYYCARDRWTYSHYFEYWGQGTLVTVSS VL: DIQMTQSPSSVSASVGDRVTITCRASQDISSWVAWYQQKPGKAPKLLIYAASSLQSGVPSRFSGSGSGTDFTLTISSLQPEDFATYYCQQANSFPRTFGQGTKVEIK	Kd (Dimeric monkey CD48-mFc [4]): 0.0606 nM; T½ (Dimeric monkey CD48-mFc [4]): 6.07 h; koff (Dimeric monkey CD48-mFc [4]): 3.17e-05 s⁻¹; kon (Dimeric monkey CD48-mFc [4]): 522000 M⁻¹ s⁻¹
